System: Cord blood-derived CD4+/CD25- cells
Assay: Priming of naive CD4+ T cells to Melan-A/MART-1 or NY-ESO-1 with DCs pre-incubated with MMP-2
Assay type: cell-based, human
Description: (A) Cord blood-derived CD4^+/CD25^− cells were stimulated with autologous poly(I:C)-matured DCs pulsed with overlapping peptides spanning either Melan-A/MART-1 or NY-ESO-1. Prior to poly(I:C) addition, DCs were incubated with or without MMP-2 (active or heat-inactivated) for 1 h. MMP-2 enzymatic activity was controlled (FIG. 13C-D). After 15 days, CD4^+ T cells were stimulated with the Melan-A/MART-1 or NY-ESO-1 peptide pools (2 μM) for 6 h before intracellular staining of cytokines. Percentages of antigen-specific CD4^+ T cells, secreting indicated cytokines, are represented for all donors. (B) Contour plots showing percentages of cytokine-producing CD4^+ T cells are shown for representative donor CB45 primed to Melan-A/MART-1. Percentage of secreting cells upon peptide stimulation was considered specific/positive when it exceeded by more than twofold the background (cytokine-secreting cells in the absence of stimulation) and had more than 0.5% of responding cells (after background subtraction) for at least one cytokine. For each cytokine, 2 paired t-tests were used to compare priming in the presence of active MMP-2 to either priming in the absence of active MMP-2 or with HI MMP-2. The Bonferroni adjustment was used for multiple comparisons. P values≦0.025 (*) were considered statistically significant using a Bonferroni correction for 2 comparisons.
T Cell culture, stimulation and priming. Peripheral blood mononuclear cells (PBMCs) were purified from healthy donor-(HD) or cord blood donor-(CB) derived buffy coats (New York Blood Center) by Ficoll-Paque Plus (GE Healthcare) centrifugation. CD4^+/CD25^− cells were enriched (>90%) by magnetic cell sorting (Miltenyi Biotec) and primed/stimulated for 12-15 days either with irradiated (35Gy) autologous CD4^− cells or with autologous mature DCs in IMDM (GIBCO) supplemented with 1 mM HEPES (Life Technologies), 2 mM L-glutamine (Sigma), streptomycin (100 UI/mL)/penicillin (100 μg/mL) (Sigma) and 5% heat inactivated pooled human serum (PHS; Valley Biomedical) in the presence of rhIL-2 (10 UI/mL) and IL7 (5 ng/mL) (R&D Systems). Antigen presenting cells (CD4^− cells or DCs) were loaded either with peptides (2 μM) or with the MMP-2 protein (10 μg/mL) for 2 and 5 h, respectively. DCs were matured using the TLR3 agonist poly(I:C) at 5 μg/mL/10^6 DCs (Amersham). To generate T cell clones, we originally relied on our published methodology (Godefroy et al., 2006; Godefroy et al., 2007; the entire contents of each of which is incorporated herein by reference), involving enrichment of IFNγ-secreting cells upon short-term culture and peptide stimulation to generate MMP-2 responsive clones. Briefly, CD4^+ T cells were stimulated by CD4^− cells irradiated and pulsed with peptides for 12 days in the presence of rhIL-2 and rhIL-7. CD4^+ T cells were then restimulated with peptides for 3 hours before capturing IFNγ-secreting specific cells using a bispecific antibody coating T cells and capturing produced IFNγ. Positive cells were purified magnetically before being cloned. Although MMP-2-specific cells could be isolated, it was realized that IFNγ secretion was marginal compared to their secretion of IL-4 and TNFα. IFNγ-secreting cells in response to MMP-2 peptide pool were enriched by cytokine-guided magnetic cell sorting (Miltenyi Biotec) as described above and cloned the following day by limiting dilution in the presence of irradiated allogeneic PBMCs, 1 μg/mL phytohemagglutinin-L (Sigma) and 150 UI/mL rhIL-2. Tumor infiltrating lymphocytes (TILs) were provided by Pr. F. Jotereau and B. Dréno. They were obtained from tumor-invaded lymph nodes of melanoma patients (stage Mb) and expanded ex vivo. These patients received autologous TILs and IL-2 infusions in a clinical trial (Labarriere et al., 2002). This protocol was approved by the Institutional Ethics Committee and registered with regulatory state authority in France (Nantes). […]

[1] = DCs pre-incubated before poly(I:C) maturation

B1: active MMP-2: Purified human MMP-2 (mixture of the proenzyme (50%) and the active form (50%)) purchased from Biomol (protein, listed as Homo sapiens)
chain: MEALMARGALTGPLRALCLLGCLLSHAAAAPSPIIKFPGDVAPKTDKELAVQYLNTFYGCPKESCNLFVLKDTLKKMQKFFGLPQTGDLDQNTIETMRKPRCGNPDVANYNFFPRKPKWDKNQITYRIIGYTPDLDPETVDDAFARAFQVWSDVTPLRFSRIHDGEADIMINFGRWEHGDGYPFDGKDGLLAHAFAPGTGVGGDSHFDDDELWTLGEGQVVRVKYGNADGEYCKFPFLFNGKEYNSCTDTGRSDGFLWCSTTYNFEKDGKYGFCPHEALFTMGGNAEGQPCKFPFRFQGTSYDSCTTEGRTDGYRWCGTTEDYDRDKKYGFCPETAMSTVGGNSEGAPCVFPFTFLGNKYESCTSAGRSDGKMWCATTANYDDDRKWGFCPDQGYSLFLVAAHEFGHAMGLEHSQDPGALMAPIYTYTKNFRLSQDDIKGIQELYGASPDIDLGTGPTPTLGPVTPEICKQDIVFDGIAQIRGEIFFFKDRFIWRTVTPRDKPMGPLLVATFWPELPEKIDAVYEAPQEEKAVFFAGNEYWIYSASTLERGYPKPLTSLGLPPDVQRVDAAFNWSKNKKTYIFAGDKFWRYNEVKKKMDPGFPKLIADAWNAIPDNLDAVVDLQGGGHSYFFKGAYYLKLENQSLKSVKFGSIKSDWLGC
- antigen-specific CD4+ T cells secreting IL-4, mean (10 cord blood donors, 15 days): 2.50%
- antigen-specific CD4+ T cells secreting IL-13, mean (10 cord blood donors, 15 days): 0.08%
- IL-4, mean of differences versus priming without MMP-2 [1]: 1.85
- IL-13, mean of differences versus priming without MMP-2 [1]: 0.07
- production of type-1 cytokines (IFNγ and IL-2) upon peptide re-stimulation (Melan-A/MART-1- and NY-ESO-1-specific primed CD4+ T cells): failed to produce

— patent US9395368B2, “Methods, agents and peptides for inducing an immune response to matrix metalloproteinase-2 expressing tumors” (New York University, priority 2010, dated 2016)
